Experimental data taken from the supplement of paper PMC10567573.

B1: DYRK1B (parent)
chain: RFQDLVLRMLEYEPAARISPLGAL
B2: HSP90AB1 (parent)
chain: EADKNDKAVKDLVVLLFETALLSS

Variants of: B1
Assay: protein stability index of a GFP-peptide fusion (GPS, HEK-293T) (PSI 1-6); higher = more stable
Conditions: c terminus: a fixed tail appended
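Also: lentivirally expressed fusions sorted by FACS into six bins by GFP to DsRed ratio, PSI derived from sequencing read proportions per bin multiplied by bin number.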

Protein stability index, by site and new letter:
R1: W 3, Y 2.47, T 2.57, P 3.11, H 2.31, N 2.94, D 1.54, M 3.36, G 1.58, F 3.52, K 2.19, S 4.75
V6: K 1.51, P 2.58, Y 2.18, D 2.24, T 2.07, A 2.26, I 2.23, N 2.78, H 2.01, Q 2.12, W 1.03, R 2, S 1.91, L 1.77, G 1.88
F2: P 1.76, G 2.18, C 2.36, Y 3.05, W 1.39, M 3.25, Q 3.35, K 2.15, T 2.42, D 2.38, N 2.14, H 2.53, V 3.5, E 3.27, R 2.38
R8: C 2.22, D 1.31, M 3.14, A 4.01, H 1.85, P 2.23, I 2.21, L 1.89, E 2.06, G 1.33
D4: H 2.78, V 3.69, S 2.88, K 2.07, N 1.91, R 2.31, I 1.1
L7: T 2.3, Y 1.38, S 2.05, R 1.58, M 2.13, N 1.41, H 1.03, F 2.9, G 1.18, E 1.8, P 2.25, Q 1.69, K 1.51
Q3: H 1.95, E 2.19, R 1.19, D 1.82, Y 3.44, P 2.05, N 2.28, V 4.49, T 3.41, K 2.03, S 2.84, I 2.91
L5: P 2.16, Q 1.1, K 1.91, D 2.71, H 1.36, F 2.62, C 3.97, A 2.01, Y 2.06, M 3.17, G 1.4, V 2.42, R 1.2, E 1.02, N 2.28, T 1.49, W 2

Variants of: B2
Assay: as above
Conditions: c terminus: a fixed tail appended

Protein stability index: each site, then its substitutions
L22: F 1.8, N 2.68, D 3.01, T 2.29, G 2.77, M 1.86, R 2.09, E 2.95, W 1.64, V 2.17, A 2.85, S 2.7, H 2.18, Q 2.29, Y 1.5
A20: Y 1.44
S24: T 1.91, P 2.72, Q 1.67, H 1.89, W 1.75, V 2.29, F 2.11, I 1.51, Y 2.04, E 1.93, N 2.13, L 2.06, C 1.4, R 1.65, M 2.16, D 1.93
L21: T 2.79, K 2.35, N 3.31, I 2.17, V 1.94, A 2.49, D 2.57, S 2.28, M 1.86, G 2.58, F 2.13, H 2.27, P 2.88, Y 1.48, C 2.14, R 2.11
S23: C 2.22, I 3.41, Q 1.64, W 2.27, H 2.26, T 2.15, K 1.91, G 1.95, P 1.96, N 1.96, A 2.21, M 2.65, R 2.54, L 3.33, V 2.41, D 2.26, Y 1.63, F 1.68
